# Measured values reported in patent US20240165252A1, “ANTIBODY-DRUG CONJUGATE AND MEDICAL USE THEREOF” (Shanghai Hansoh Biomedical Co., Ltd., priority 2021, published 2024).
# Where a chain is given by its changes, count along the chain named.
# B1: humanized anti-BCMA antibody Ab2 (antibody, human IgG1, kappa, V domains shown)
# VH: QVQLVQSGAEVKKPGASVKVSCKASGYSFSDYEMHWVRQAPGQGLEWIGGIHPGSGGSAYNQKFKGRVTLTVDKSTSTAYMELSSLRSEDTAVYYCTRLDYGYSWAWFPYWGQGTLVTVSA
# VL: EIVLTQSPATLSLSPGERATLSCSASSSVIYMNWYQQKPGQSPKIWIYGISNLASGVPARFSGSGSGTDFTLTISSLEPEDFAVYYCQQRSSYPLTFGGGTKVEIKR
# notes: Human IgG1/kappa, expressed in HEK293 cells
# B2: antibody drug conjugate ADC2 (y = 4) (antibody, human IgG1, kappa, V domains shown)
# VH: B1 VH
# VL: B1 VL
# modifications: Linker-drug compound D (exatecan derivative) coupled to Ab2 after TCEP reduction. Average load y = 4 per antibody. Sites not stated.
# B3: humanized anti-BCMA antibody Ab3 (antibody, human IgG1, kappa, V domains shown)
# VH: B1 VH with R67K, V68A
# VL: B1 VL with V3L, S22T, Q41S, D69S
# notes: as for B1
# B4: humanized anti-BCMA antibody Ab1 (antibody, human IgG1, kappa, V domains shown)
# VH: B1 VH with I48M, L70M, V72R, K74T, A79V
# VL: B1 VL with S42A, K44R, I45L, W46L, V57I
# notes: as for B1
# B5: murine monoclonal antibody M1 (antibody, V domains shown)
# VH: QVQLQQSGAELVRPGASVKLSCKALGYSFSDYEMHWVRQTPVHGLEWIGGIHPGSGGSAYNQKFKGKATLTVDKSSSTAYMELSSLTSEDSAVYYCTRLDYGYSWAWFPYWGQGTLVTVSA
# VL: EILLTQSPAIIVTSPGEKVTITCSASSSVIYMNWYQQKPGSSPKIWIYGISNLASGVPARFSGSGSGTSFSFTINSMEAEDVATYYCQQRSSYPLTFGAGTKLELK
# notes: It is a hybridoma-derived murine antibody, yet the ELISA protocol names a goat-anti-human secondary antibody; also called murine antibody M1
# Columns and labels:
# [1] = biological target: BCMA expressed on cells (HEK-293T cells overexpressing BCMA; NCI-H929 tumor cells) (human) (UniProt Q02223); test: cell-based or functional assay
# [2] = biological target: T1, His-tagged extracellular domain of human BCMA (BCMA-His) (human); test: indirect ELISA, BCMA-His coated on plate
# T1 construct: Bought protein; also called BCMA His protein; human BCMA His antigen
# T1 chain: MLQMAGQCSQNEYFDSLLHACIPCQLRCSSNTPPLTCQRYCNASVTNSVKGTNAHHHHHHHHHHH
# Protocol: (§1) After washing, the plate 4 times with PBST (pH 7.4 PBS containing 0.05% Tween-20), 3% bovine serum albumin (BSA) blocking solution diluted with PBST was added at 150 μl/well and incubated at room temperature for 1 hour for blocking. After completion of the blocking, the blocking solution was discarded, and the plate was washed 4 times with PBST buffer.
# (§2) The antibody to be tested was 10-fold gradient diluted with PBST containing 3% BSA with the initial concentration of 1 μM to obtain 10 dilutions which were added to the microtiter plate at 100 μl/well and incubated at room temperature for 1 hour. After completion of the incubation, the plate was washed 4 times with PBST. HRP-labeled goat-anti-human secondary antibody (Abcam, Cat #ab97225) diluted with PBST containing 3% BSA was added at 100 μl/well and incubated at room temperature for 1 hour. The plate was washed 4 times with PBST, and then TMB chromogenic substrate (Cell Signaling Technology, cat #7004S) was added at 100 μl/well and incubated at room temperature in the dark for 1 minute. The stop solution (Cell Signaling Technology, cat #7002S) was added at 100 μl/well to terminate the reaction. The absorbance value at 450 nm was read with a microplate reader (BioTek, model Synergy H1). The data were analyzed.
# [3] = biological target: T2, BCMA expressed on cells (HEK-293T cells overexpressing BCMA; NCI-H929 tumor cells) (human, UniProt Q02223 1-184); test: flow cytometry on NCI-H929 cells
# T2 construct: whole, on cells; also called HEK-293T/BCMA cells; NCI-H929 cells
# T2 sequence (looked up): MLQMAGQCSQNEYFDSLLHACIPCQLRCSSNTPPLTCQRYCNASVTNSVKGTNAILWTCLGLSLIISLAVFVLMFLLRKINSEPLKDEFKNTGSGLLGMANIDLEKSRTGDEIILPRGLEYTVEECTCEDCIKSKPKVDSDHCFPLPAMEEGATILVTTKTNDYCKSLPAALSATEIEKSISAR
# Protocol: (§3) The cultured cells with high BCMA expression (HEK-293T cells overexpressing BCMA; tumor cells expressing BCMA, NCI-H929) were collected. The cell density was adjusted and the cells were plated on a 96-well U-bottomed plate at 1×10⁵ to 2×10⁵ cells per well. The plate was centrifuged at 1200 g for 5 min and the supernatant was removed. 100 μl of gradient diluted antibody solution or mouse immunized serum was added and incubated at 4° C. for 60 min. The plate was centrifuged at 1200 g for 5 min and the supernatant was removed. The cells were washed twice with PBS. A fluorescently labeled secondary antibody (PE-GAH or PE-GAM) was added at 100 μl per well and incubated at 4° C. for 60 min. The plate was centrifuged at 1200 g for 5 min and the supernatant was removed. The cells were washed twice with PBS and then re-suspended in PBS. The signal was detected by using a flow cytometer, and a concentration curve was plotted for result analysis.
# [4] = biological target: T2, BCMA expressed on cells (HEK-293T cells …); test: cell-based or functional assay
# [5] = biological target: T2, BCMA expressed on cells (HEK-293T cells …); test: cell-based or functional assay; remark: listed apart in the source
# [6] = biological target: T2, BCMA expressed on cells (HEK-293T cells …); test: flow cytometry on HEK-293T/BCMA cells
# Protocol: as §3
# [7] = biological target: T1, His-tagged extracellular domain of …; test: indirect ELISA, BCMA His coated on plate
# Protocol: as §1, §2
Molecule,Killing Effect (IC50 nM) NCI-H929 [1],EC50 [2],EC50 [3],"Endocytosis efficiency %, 0.5 hour [4]","Endocytosis efficiency %, 2 hours [4]",Killing Effect (IC50 nM) NCI-H929 [5],EC50 [6],EC50 [7]
IgG1 iso ADC (y = 4) (antibody),> 133 nM,,,,,,,
B1,,0.033 nM,3.5 nM,36.7%,48%,,,
B2,,,,,,0.76 nM,,
B3,,0.034 nM,3.9 nM,35.5%,45.7%,,,
B4,,0.022 nM,4.6 nM,36.6%,49.5%,,,
B5,,,128 nM,,,,115 nM,0.53 nM
